Measured values from patent US7384773B1, “Crystal of HIV protease-cleaved human beta secretase and method for crystallization thereof” (Pfizer Inc, priority 2001, dated 2008).

Molecular target: T1, beta secretase (Homo sapiens, UniProt P56817)
T1 construct: made in house; host or cells: CHO-K1 cells (secreted, glycosylated)
Experiment: beta secretase enzymatic activity assayed by HPLC analysis of the products
Assay type: biochemical
Details: CHO cell derived human beta secretase cleaved at F39-V40 by HIV-1 protease and purified, compared with non-treated beta secretase
Description: Purified HIV-1 protease treated (and non-treated) beta secretase were assayed for activity by HPLC analysis of the products.

B1: HIV-1 protease treated beta secretase: CHO cell expressed recombinant human beta secretase proteolytically cleaved with HIV protease (N-terminus V40), used for crystallization (protein)
chain: VEMVDNLRGKSGQGYYVEMTVGSPPQTLNILVDTGSSNFAVGAAPHPFLHRYYQRQLSSTYRDLRKGVYVPYTQGKWEGELGTDLVSIPHGPNVTVRANIAAITESDKFFINGSNWEGILGLAYAEIARPDDSLEPFFDSLVKQTHVPNLFSLQLCGAGFPLNQSEVLASVGGSMIIGGIDHSLYTGSLWYTPIRREWYYEVIIVRVEINGQDLKMDCKEYNYDKSIVDSGTTNLRLPKKVFEAAVKSIKAASSTEKFPDGFWLGEQLVCWQAGTTPWNIFPVISLYLMGEVTNQSFRITILPQQYLRPVEDVATSQDDCYKFAISQSSTGTVMGAVIMEGFYVVFDRARKRIGFAVSACHVHDEFRTAAVEGPFVTLDMEDCGYNIPQTDESHHHHHH
more enzymatic activity than non-treated (unprocessed) beta secretase: 10-20%
